Measured values from patent publication US20240417482A1 (CONCEPT TO MEDICINE BIOTECH, published 2024).
Positions count from the first letter of the chain named. Where two headings read alike, the source gives them in different places. Each block holds one molecule with its values, some of them ahead of it.

Tests used:
[1] = molecular target: human 4-1BB expressed on cells (human) (UniProt Q07011); test: flow cytometry on HEK293-4-1BB cells, PE anti-human IgG, MFI
human 4-1BB-His protein [2] = molecular target: T1, human 4-1BB-His protein (human, UniProt Q07011 24-186); test: ELISA, plate coated with human 4-1BB-His at 0.5 ug/ml, anti-human IgG-HRP detection, OD450 (panel Human 4-1BB ELISA)
T1 construct: Recombinant His-tagged protein; also called human 4-1BB-his tag; recombinant 4-1BB protein; not shown: His tag
Target sequence in this assay (Q07011 24-186 limits assumed): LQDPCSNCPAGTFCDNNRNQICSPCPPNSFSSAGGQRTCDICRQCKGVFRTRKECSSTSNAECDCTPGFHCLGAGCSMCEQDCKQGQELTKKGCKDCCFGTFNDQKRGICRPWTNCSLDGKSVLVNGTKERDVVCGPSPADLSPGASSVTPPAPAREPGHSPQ

human 4-1BB-His protein [3] = molecular target: T1, human 4-1BB-His protein; test: SPR, Biacore T200, antibody captured on Protein A chip, human 4-1BB-His as analyte
Experimental: The binding of the humanized antibodies to recombinant human 4-1BB protein (human 4-1BB-his tag) was tested by Biacore using a capture method. […] A serial dilution of human 4-1BB-his tag protein was injected over captured antibody for 30 s at a flow rate of 10 μl/min. The antigen was allowed to dissociate for 360 s. All the experiments were carried out on a Biacore T200.

human OX40 protein = molecular target: T2, human OX40 protein (human, UniProt P43489 29-214, limits assumed); test: ELISA, plate coated with human OX40 0.5 µg/ml
T2 construct: Coated protein in ELISA
T2 sequence (looked up): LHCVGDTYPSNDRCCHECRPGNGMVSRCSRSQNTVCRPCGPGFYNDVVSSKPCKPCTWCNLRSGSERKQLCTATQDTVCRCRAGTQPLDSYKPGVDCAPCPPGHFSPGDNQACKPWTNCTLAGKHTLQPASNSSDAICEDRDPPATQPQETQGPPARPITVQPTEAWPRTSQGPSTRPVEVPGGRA
Experimental: (§1) Briefly, microtiter plates were coated with human CD40 protein or human OX40 protein at 0.5 μg/ml in PBS, 100 μl/well at 4° C. overnight, then blocked with 150 μl/well of 1% BSA. […] The plates were washed with PBS/Tween and then incubated with Anti-Human IgG (H&L) (GOAT) Antibody Peroxidase Conjugated for 30 mins at 37° C. After washing, the plates were developed with TMB substrate and analyzed by spectrophotometer at OD 450 nm.

[4] = molecular target: T3, cynomolgus 4-1BB-His protein (cynomolgus, UniProt A9YYE7 24-186); test: ELISA, plate coated with cynomolgus 4-1BB-His, anti-human IgG-HRP
T3 construct: Recombinant His-tagged protein; also called cyno 4-1BB antigen; not shown: His tag
T3 sequence: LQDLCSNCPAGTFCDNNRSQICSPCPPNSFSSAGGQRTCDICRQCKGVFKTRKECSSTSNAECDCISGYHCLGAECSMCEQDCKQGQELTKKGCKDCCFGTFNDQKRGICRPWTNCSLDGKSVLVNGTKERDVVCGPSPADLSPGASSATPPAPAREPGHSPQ
Experimental: as §1, with “Microtiter” for “Briefly, microtiter”, “cynomolgus 4-1BB-His” for “human CD40 protein or human OX40”

human 4-1BB-His protein [5] = molecular target: T1, human 4-1BB-His protein; test: SPR, Biacore T200, antibody captured on Protein A chip, human 4-1BB-His as analyte; remark: listed apart in the source
Experimental: A serial dilution of human 4-1BB-his tag protein was injected over captured antibody for 30 s at a flow rate of 30 μl/min. The antigen was allowed to dissociate for 360 s. All the experiments were carried out on a Biacore T200. Data analysis was carried out using the Biacore T200 evaluation software.

human 4-1BB-His protein [6] = molecular target: T1, human 4-1BB-His protein; test: ELISA, plate coated with human 4-1BB-His, anti-human IgG-HRP
Experimental: as §1, with “4-1BB-His” for “CD40 protein or human OX40”

mouse 4-1BB-His protein [7] = molecular target: T4, mouse 4-1BB-His protein (mouse, UniProt P20334 24-187); test: ELISA, plate coated with mouse 4-1BB-His 0.5 µg/ml
T4 construct: Recombinant His-tagged protein; also called mouse 4-1BB antigen; not shown: His tag
T4 sequence (looked up): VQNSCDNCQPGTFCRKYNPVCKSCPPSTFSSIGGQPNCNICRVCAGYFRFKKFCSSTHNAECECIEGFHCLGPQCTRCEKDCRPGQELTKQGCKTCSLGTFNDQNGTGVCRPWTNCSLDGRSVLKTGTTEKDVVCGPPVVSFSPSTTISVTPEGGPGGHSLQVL
Experimental: as §1, with “Microtiter” for “Briefly, microtiter”, “mouse 4-1BB-His” for “human CD40 protein or human OX40”

human CD40 protein = molecular target: T5, human CD40 protein (human, UniProt P25942 21-193); test: ELISA, plate coated with human CD40 0.5 µg/ml
T5 construct: Coated protein in ELISA
T5 sequence (P25942 21-193 limits assumed): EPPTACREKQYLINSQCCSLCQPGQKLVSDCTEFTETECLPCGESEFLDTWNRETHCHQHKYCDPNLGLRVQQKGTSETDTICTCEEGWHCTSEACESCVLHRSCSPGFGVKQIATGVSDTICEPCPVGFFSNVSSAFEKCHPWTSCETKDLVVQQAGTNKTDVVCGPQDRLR
Experimental: as §1

mouse 4-1BB-His protein [8] = molecular target: T4, mouse 4-1BB-His protein; test: ELISA, plate coated with mouse 4-1BB-His, anti-human IgG-HRP
Experimental: as §1, with “Microtiter” for “Briefly, microtiter”, “mouse 4-1BB-His” for “human CD40 protein or human OX40”

human 4-1BB expressed on cells (human), sequence (Q07011 24-255): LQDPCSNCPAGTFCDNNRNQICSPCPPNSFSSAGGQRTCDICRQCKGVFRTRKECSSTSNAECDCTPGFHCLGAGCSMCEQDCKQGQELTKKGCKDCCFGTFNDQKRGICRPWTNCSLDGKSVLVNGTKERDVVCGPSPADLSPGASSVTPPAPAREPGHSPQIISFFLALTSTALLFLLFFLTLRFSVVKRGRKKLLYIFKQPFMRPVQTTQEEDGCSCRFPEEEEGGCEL

EC50 (read off the curve) [1]: 2 nM | EC50 (read off the curve) (human 4-1BB-His protein [2]): 10 ng/mL
Molecule: Urelumab (antibody)

Kd (human 4-1BB-His protein [3]): 13.6 nM | koff (human 4-1BB-His protein [3]): 0.00716 s⁻¹ | kon (human 4-1BB-His protein [3]): 526000 M⁻¹ s⁻¹
B1: B31-V3 humanized antibody (VHH)
VHH: QVQLVESGGGLVQPGGSLRLSCAASGDIFSIMFWYRQAPGKQREYVAHITSNGRTNYADSVTGRFTISRDNNKNTLYLQMNSLRAEDTAVYYCAADDATNTRTYWGQGTLVTVSS
notes: Humanized VHH captured on a Protein A chip; also called B31 VHH-V3

Kd (human 4-1BB-His protein [3]): 4.97 nM | koff (human 4-1BB-His protein [3]): 0.00646 s⁻¹ | kon (human 4-1BB-His protein [3]): 1.3e+06 M⁻¹ s⁻¹
B2: B31-V5 humanized antibody (VHH)
VHH: B1 VHH with A38P, P39Q, N81D
notes: Humanized VHH captured on a Protein A chip; also called B31 VHH-V5

Kd (human 4-1BB-His protein [3]): 4.74 nM | koff (human 4-1BB-His protein [3]): 0.00545 s⁻¹ | kon (human 4-1BB-His protein [3]): 1.15e+06 M⁻¹ s⁻¹
B3: B31-V4 humanized antibody (VHH)
VHH: B1 VHH with N72S, L76M, N81D
notes: Humanized VHH captured on a Protein A chip; also called B31 VHH-V4

Kd (human 4-1BB-His protein [3]): 6.58 nM | koff (human 4-1BB-His protein [3]): 0.00156 s⁻¹ | kon (human 4-1BB-His protein [3]): 237000 M⁻¹ s⁻¹
B4: B31-V6 humanized antibody (VHH)
VHH: B1 VHH with A23S, N72S, A95R
notes: Humanized VHH captured on a Protein A chip; also called B31 VHH-V6

Kd (human 4-1BB-His protein [3]): 13.1 nM | koff (human 4-1BB-His protein [3]): 0.0068 s⁻¹ | kon (human 4-1BB-His protein [3]): 517000 M⁻¹ s⁻¹
B5: B31-V2 humanized antibody (VHH)
VHH: B1 VHH with A23S, A47S, N72S
notes: Humanized VHH expressed in 293F cells and captured on a Protein A chip; also called B31 VHH-V2

binding result (human OX40 protein): no binding | EC50 (read off the curve) [1]: 3 nM | EC50 [4]: 4.06 ng/mL | Kd (human 4-1BB-His protein [5]): 3.16 nM | koff (human 4-1BB-His protein [5]): 0.0048 s⁻¹ | kon (human 4-1BB-His protein [5]): 1.52e+06 M⁻¹ s⁻¹ | EC50 (human 4-1BB-His protein [6]): 2.42 ng/mL | binding result (mouse 4-1BB-His protein [7]): no binding | binding result (human CD40 protein): no binding
B6: B31 chimeric mAb (VHH)
VHH: QVQLVESGGGLVQAGGSLRLSCAASGDIFSIMFWYRQPQGKQREYVAHITSNGRTNYADSVTGRFTISRGNNDNTMYLQMDNLKPQDTAVYYCAADDATNTRTYWGQGTQVTVSS
notes: Alpaca VHH tested as 'chimeric mAb' expressed in 293F cells, purified by protein G, detected with anti-human IgG and captured on Protein A; also called B31 chimeric antibody

Kd (human 4-1BB-His protein [3]): 1930 nM | koff (human 4-1BB-His protein [3]): 0.0898 s⁻¹ | kon (human 4-1BB-His protein [3]): 46500 M⁻¹ s⁻¹
B7: B16-V2 humanized antibody (VHH)
VHH: EVQLVESGGGLVQPGGSLRLSCAASGFTFSYYAIGWFRQAPGKEREGVSCISSSDGSTYYADSVKGRFTISRDNSKNTLYLQMNSLRAEDTAVYYCATDTTTRCPIWSYYVESDYWGQGTLVTVSS
notes: Humanized VHH; also called B16 VHH-V2

EC50 (mouse 4-1BB-His protein [8]): 16.3 ng/mL | binding result (human OX40 protein): no binding | EC50 [4]: 19.5 ng/mL | Kd (human 4-1BB-His protein [5]): 21.5 nM | koff (human 4-1BB-His protein [5]): 0.00739 s⁻¹ | kon (human 4-1BB-His protein [5]): 343000 M⁻¹ s⁻¹ | EC50 (human 4-1BB-His protein [6]): 10.6 ng/mL | binding result (human CD40 protein): no binding
B8: B16 chimeric mAb (VHH)
VHH: B7 VHH with E1Q, F29L, S30D, S75A, L79V, R87K, A88P, L121Q
notes: Alpaca VHH tested as 'chimeric mAb'

EC50 (mouse 4-1BB-His protein [8]): 4.42 ng/mL | binding result (human OX40 protein): no binding | EC50 (read off the curve) [1]: 3 nM | EC50 [4]: 3.54 ng/mL | Kd (human 4-1BB-His protein [5]): 21 nM | koff (human 4-1BB-His protein [5]): 0.00818 s⁻¹ | kon (human 4-1BB-His protein [5]): 390000 M⁻¹ s⁻¹ | EC50 (human 4-1BB-His protein [6]): 2.06 ng/mL | binding result (human CD40 protein): no binding
B9: B125 chimeric mAb (VHH)
VHH: B7 VHH with E1Q, T28A, Y31D, S75A, L79V, R87K, A88P, L121Q
notes: as for B8

Kd (human 4-1BB-His protein [3]): 3070 nM | koff (human 4-1BB-His protein [3]): 0.0266 s⁻¹ | kon (human 4-1BB-His protein [3]): 8670 M⁻¹ s⁻¹
B10: B125-V2 humanized antibody (VHH)
VHH: B7 VHH with T28A, Y31D
notes: Humanized VHH; also called B125 VHH-V2

EC50 (mouse 4-1BB-His protein [8]): 402 ng/mL | binding result (human OX40 protein): no binding | EC50 [4]: 3.91 ng/mL | Kd (human 4-1BB-His protein [5]): 90.4 nM | koff (human 4-1BB-His protein [5]): 0.00352 s⁻¹ | kon (human 4-1BB-His protein [5]): 38900 M⁻¹ s⁻¹ | EC50 (human 4-1BB-His protein [6]): 2.51 ng/mL | binding result (human CD40 protein): no binding
B11: B210 chimeric mAb (VHH)
VHH: EVQLVESGGGLVQPGGSLRLSCAASGLSLDYYAIGWFRQAPGKEREGVSCISSSGRSTNYADSVKGRFTISRDNAKNTVYLQMNSLKPEDTADYYCATDTTTRCPIWSNYVESDYWGQGTQVTVSS
notes: as for B8

Kd (human 4-1BB-His protein [3]): 765 nM | koff (human 4-1BB-His protein [3]): 0.041 s⁻¹ | kon (human 4-1BB-His protein [3]): 53700 M⁻¹ s⁻¹
B12: B210-V2 humanized antibody (VHH)
VHH: B7 VHH with D55G, G56R, Y59N, Y109N
notes: Humanized VHH; also called B210 VHH-V2

Kd (human 4-1BB-His protein [3]): 2560 nM | koff (human 4-1BB-His protein [3]): 0.0408 s⁻¹ | kon (human 4-1BB-His protein [3]): 15900 M⁻¹ s⁻¹
B13: B210-V3 humanized antibody (VHH)
VHH: B7 VHH with F27L, D55G, G56R, Y59N, Y109N
notes: Humanized VHH; also called B210 VHH-V3

binding result (human OX40 protein): no binding | EC50 [4]: 4.81 ng/mL | Kd (human 4-1BB-His protein [5]): 0.526 nM | koff (human 4-1BB-His protein [5]): 0.000546 s⁻¹ | kon (human 4-1BB-His protein [5]): 1.04e+06 M⁻¹ s⁻¹ | EC50 (human 4-1BB-His protein [6]): 5.2 ng/mL | binding result (mouse 4-1BB-His protein [7]): no binding | binding result (human CD40 protein): no binding
B14: B164 chimeric mAb (VHH)
VHH: EVQLVESGGGLVQAGGSLRLSCAASGSIFSYMFWYRQPQGKQREYVAHITSGGRTNYADSVTGRFTISRGNNDNTMYLQMNNLKPEDTAVYYCAADDAVYTDRTYWGQGTQVTVSS
notes: as for B8
